US20250230207A1, “COMPOSITION” (Worg Pharmaceuticals (Zhejiang) Co., Ltd., priority 2017, published 2025)

B1: gpMBP: guinea pig myelin basic protein (SEQ ID NO: 6), immunising antigen (protein, listed as Cavia porcellus)
chain: ASQKRPSQRHGSKYLATASTMDHARHGFLPRHRDTGILDSIGRFFGSDRAAPKRGSGKDSHHAARTTHYGSLPQKSQRSQDENPVVHFFKNIVTPRTPPPSQGKGRGLSLSRFSWGAEGQKPGFGYGGRADYKSKGFKGAHDAQGTLSKIFKLGGRDSRSGSPMARR
B2: huMBP: human myelin basic protein, immunising antigen (protein, UniProt P02686 1-304, looked up)
Myelin basic protein: MGNHAGKRELNAEKASTNSETNRGESEKKRNLGELSRTTSEDNEVFGEADANQNNGTSSQDTAVTDSKRTADPKNAWQDAHPADPGSRPHLIRLFSRDAPGREDNTFKDRPSESDELQTIQEDSAATSESLDVMASQKRPSQRHGSKYLATASTMDHARHGFLPRHRDTGILDSIGRFFGGDRGAPKRGSGKDSHHPARTAHYGSLPQKSHGRTQDENPVVHFFKNIVTPRTPPPSQGKGRGLSLSRFSWGAEGQRPGFGYGGRASDYKSAHKGFKGVDAQGTLSKIFKLGGRDSRSGSPMARR

How the values were obtained:
Assay type in all cases: in vivo, Lewis rat
[1] = system: experimental autoimmune uveitis (EAU) in Lewis rats; assay: Example 1: development of uveitis (EAU) after immunisation with IRBP, gpMBP and/or huMBP; conditions: for Maximum Score of EAU: TEFI retinal score, maximum possible 6; for clinical signs of anterior uveitis: visual score 0-3, compared to the gpMBP-administered group, data until Day 21
Method: This study aimed at studying the effect, in Lewis rats, of immunisations with guinea pig myelin basic protein (gpMBP), human myelin basic protein (huMBP) and/or interphotoreceptor retinoid-binding protein with regard to development of encephalomyelitis (EAE) and/or uveitis (EAU).
(§1) Adult female Lewis rats were randomly allocated to experimental groups and allowed to acclimatise for one week. On Day 0, animals were administered by subcutaneous injection with 200 microliters of an emulsion containing 20 micrograms of IRBP1177-1191 (Cambridge Bioscience, UK) and/or 100 micrograms of human (Fitzgerald Industries International, MA, US) or guinea pig Myelin Basic Protein (gpMBP) in incomplete Freund's adjuvant (Sigma, UK) supplemented with 5 mg/ml Mycobacterium Tuberculosis H37Ra ([…]) (Becton Dickenson, UK). From Day 0 until the end of the experiment, animals were weighed daily. From Day 0 until the end of the experiment, animals were scored daily for clinical signs of experimental autoimmune encephalomyelitis to include limpness, paresis and/or paralysis of the tail, hind limbs and/or front limbs. From Day 0 until the end of the experiment, animals were scored twice weekly for clinical signs of uveitis. On Day 21 (Groups 1, 2 and 3) or Day 28 (Groups 4 and 5), animals were culled and the following samples were dissected out and stored in tissue fixative for optional histopathology analysis: brain, spinal cord, right and left eyes.
From Day 0 until the end of the experiment, animals were visually scored twice per week for clinical signs of anterior uveitis using the following scoring system. The maximum possible score was 3. Data were graphed (Mean±SEM).
From Day 0 until the end of the experiment, animals were scored twice per week for clinical signs of intermediate and posterior uveitis. Retinal images were captured using TEFI in non-anaesthetised but restrained animals following pupil dilatation using Tropicamide 1% then Phenylephrine hydrochloride 2.5%. Retinal images were scored using the following system. The maximum possible score was 6. Data were graphed (Mean±SEM).
Animals with an average score for both eyes greater than 0.5 on at least two consecutive TEFI sessions (see FIG. 2) or a score greater than 1.0 on any occasion were considered to have developed clinical signs of posterior uveitis. Based on this criterion, the incidence of EAU was:
Due to the lack of pigmentation in the retina of Lewis rats, the scoring system below was used. This is due to the inability to identify areas of infiltration causing haziness and cuffing on a pale background. Inflammation of the optic disc could not be clearly identified and was not therefore scored, also, no structural damage was observed. Infiltration of retinal vessels could be identified by engorged appearance on a scale of 0-3, mild to severe. Retinal inflammation was identified by the appearance of small to large areas of redness caused by increase in vascularisation also on a scale of 0-3, giving a total possible score of 6.
Clinical signs of anterior uveitis were also observed during the experiment. Data collected until Day 21 were analysed by two-way ANOVA followed by Dunnett's post-test for multiple comparisons between experimental groups.

[2] = system: experimental autoimmune encephalomyelitis (EAE) in Lewis rats; assay: Example 1: development of experimental autoimmune encephalomyelitis (EAE) after immunisation; conditions: paralytic symptom scoring 0-6
Method: as §1
Guinea pig MBP may induce Experimental autoimmune encephalomyelitis (EAE) in Lewis rats, a model for multiple sclerosis (MS). In this experiment, severe EAE was developed in Lewis rats immunised with gpMBP alone (incidence 8/8 rats; mean max score 3.5) or in combination with IRBP peptide (incidence 8/8 rats; mean max score 3.9) using the scoring system for paralytic symptoms: 0) no abnormality, (0.5) partial tail limpness, (1) complete tail limpness, (2) one hind limb paresis, (2.5) two hind limbs paresis, (3) one hind limb paralysis, (4) two hind limb paralysis, (5) incontinence and (6) moribund.

[3] = Example 1: bodyweights and non-specific clinical observations; conditions: Day 11 to Day 21, compared to the IRBP-administered group
Description: Adult female Lewis rats were randomly allocated to experimental groups and allowed to acclimatise for one week. […] From Day 0 until the end of the experiment, animals were weighed daily. From Day 0 until the end of the experiment, animals were scored daily for clinical signs of experimental autoimmune encephalomyelitis to include limpness, paresis and/or paralysis of the tail, hind limbs and/or front limbs. From Day 0 until the end of the experiment, animals were scored twice weekly for clinical signs of uveitis. On Day 21 (Groups 1, 2 and 3) or Day 28 (Groups 4 and 5), animals were culled and the following samples were dissected out and stored in tissue fixative for optional histopathology analysis: brain, spinal cord, right and left eyes.
From Day 0 until the end of the experiment, animals were checked daily for non-specific clinical signs to include abnormal posture (hunched), abnormal coat condition (piloerection) and abnormal activity levels (reduced or increased activity).
From Day 0 until the end of the experiment, animals were weighed daily.

[4] = Lewis rats immunised SC Day 0 in CFA

Row | Molecule | Onset (Day) of EAU [1, 4] [days] | Incidence of EAU (clinical signs of posterior uveitis) ([1]; Lewis rats immunised SC Day 0 in CFA, TEFI score criterion, affected/total in brackets) | Maximum Score of EAU [1] | clinical signs of anterior uveitis [1] | EAE incidence [2] | EAE mean max score [2] | bodyweight loss [3] | severity of the clinical signs of EAU compared to the other immunised groups ([1]; vs IRBP (p<0.001), IRBP and gpMBP (p<0.01), IRBP and huMBP (p<0.01), huMBP (p<0.05))
1 | ADGSSWEGVGVVPDV [IRBP, reference compound] | 10.5 ± 0.5 | 100% (8/8) | 5.6 ± 0.3 | observed from Day 11 | 2/8 | 1.0 | no significant bodyweight loss | –
2 | B1 | 11.5 ± 0.5 | – | 1.1 ± 0.2 | – | 8/8 | 3.5 | significant bodyweight loss | significantly lower
3 | B2 | 10.2 ± 0.7 | – | 4.1 ± 0.5 | observed on Day 14 (p<0.0001) and Day 18 (p<0.01) | 3/14 | 1.0 | no significant bodyweight loss | –
